Experimental findings from patent US20090215686A1 (published 2009) are described below.

The target of assay [1] is T1, Met extracellular domain fragment (residues 25-567, sema domain and cysteine-rich domain) with C-terminal … (UniProt P08581 25-307; P08581 308-567).
T1 construct: also called 6his-Met; Met sema domain
Kind of assay: AlphaScreen, biotinylated NK1 and histidine-tagged Met, with against without heparin. The method, then: (§1) The binding of NK1 to Met was determined by AlphaScreen assays using a hexahistidine detection kit from Perkin-Elmer. The experiment was performed using 10 nM biotin-NK1 and 6his-Met in the presence of 5 μg/ml donor and acceptor beads in a buffer containing 50 mM MOPS, pH7.4, 50 mM NaF, 0.05 mM CHAPS, and 0.1 mg/ml bovine serum albumin. Competition experiments were performed with 0.01 to 2.5 μM untagged ligand in the presence of 1 μM heparin and IC₅₀ values for NK1-Met interaction were determined from a nonlinear least square fit of the data. All experiments were duplicated or triplicated with standard errors typically less than 10% of the measurements. The Met dimerization assays were prepared using 40 nM of 6his-Met in the presence of 5 μg/ml nickel chelate donor and acceptor beads (Perkin-Elmer). The effect of Met ligands and heparin on Met dimerization was determined using 1 μM untagged ligand and 1 μM heparin.
(§2) To determine the functional activity of the above purified proteins, the direct interactions of Met with the biotinylated NK1 were measured using AlphaScreen assays as illustrated in FIG. 1C. […] When NK1 interacts with Met, excitation of a laser beam at 680 nm causes the donor beads to emit single oxygen molecules to activate the fluorophores in the acceptor beads and a light signal is detected at 520-620 nm. […]
(In Alpha technology, singlet oxygen from a donor bead excites a nearby acceptor bead.)

Assay [2] concerns the target T1, Met extracellular domain fragment …. Description: AlphaScreen, biotinylated NK1 on streptavidin donor beads and 6his-Met on nickel chelate acceptor beads, with heparin (sheet prints '+ 1 pM HEPARIN') [d]. The procedure: as §1, §2

B1: biotinylated human NK1 (ligand)
chain: YAEGQRKRRNTIHEFKKSAKTTLIKIDPALKIKTKKVNTADQCANRCTRNKGLPFTCKAFVFDKARKQCLWFPFNSMSSGVKKEFGHEFDLYENKDYIRNCIIGKGRSYKGTVSITKSGIKCQPWSSMIPHEHSFLPSSYRGKDLQENYCRNPRGEEGGPWCFTSNPEVRYEVCDIPQCSEV
modifications: biotin on the N-terminal biotin acceptor peptide (coexpressed BirA)
notes: Made from the His6-thioredoxin-NK1 vector, digested with thrombin, purified on monomeric avidin; also called biotin-NK1; biotinylated NK1; not shown: 20 amino acid biotin acceptor peptide from the pDW464 plasmid (Duffy et al., 1998)
Turning to B1, the “fold increase of the NK1-Met binding signal on addition of heparin” value in assay [1] was greater than 200 fold. Besides, the “fold label beside the bar of NK1+MET with heparin (NK1-MET binding signal)” value in assay [2] came out at 265 fold.
